Columns and labels:
[1] = molecular target: T1, P-Rex2 DEP2-IP4P (residues 472-1606) (UniProt Q70Z35 472-1606); test: SPR
T1 sequence: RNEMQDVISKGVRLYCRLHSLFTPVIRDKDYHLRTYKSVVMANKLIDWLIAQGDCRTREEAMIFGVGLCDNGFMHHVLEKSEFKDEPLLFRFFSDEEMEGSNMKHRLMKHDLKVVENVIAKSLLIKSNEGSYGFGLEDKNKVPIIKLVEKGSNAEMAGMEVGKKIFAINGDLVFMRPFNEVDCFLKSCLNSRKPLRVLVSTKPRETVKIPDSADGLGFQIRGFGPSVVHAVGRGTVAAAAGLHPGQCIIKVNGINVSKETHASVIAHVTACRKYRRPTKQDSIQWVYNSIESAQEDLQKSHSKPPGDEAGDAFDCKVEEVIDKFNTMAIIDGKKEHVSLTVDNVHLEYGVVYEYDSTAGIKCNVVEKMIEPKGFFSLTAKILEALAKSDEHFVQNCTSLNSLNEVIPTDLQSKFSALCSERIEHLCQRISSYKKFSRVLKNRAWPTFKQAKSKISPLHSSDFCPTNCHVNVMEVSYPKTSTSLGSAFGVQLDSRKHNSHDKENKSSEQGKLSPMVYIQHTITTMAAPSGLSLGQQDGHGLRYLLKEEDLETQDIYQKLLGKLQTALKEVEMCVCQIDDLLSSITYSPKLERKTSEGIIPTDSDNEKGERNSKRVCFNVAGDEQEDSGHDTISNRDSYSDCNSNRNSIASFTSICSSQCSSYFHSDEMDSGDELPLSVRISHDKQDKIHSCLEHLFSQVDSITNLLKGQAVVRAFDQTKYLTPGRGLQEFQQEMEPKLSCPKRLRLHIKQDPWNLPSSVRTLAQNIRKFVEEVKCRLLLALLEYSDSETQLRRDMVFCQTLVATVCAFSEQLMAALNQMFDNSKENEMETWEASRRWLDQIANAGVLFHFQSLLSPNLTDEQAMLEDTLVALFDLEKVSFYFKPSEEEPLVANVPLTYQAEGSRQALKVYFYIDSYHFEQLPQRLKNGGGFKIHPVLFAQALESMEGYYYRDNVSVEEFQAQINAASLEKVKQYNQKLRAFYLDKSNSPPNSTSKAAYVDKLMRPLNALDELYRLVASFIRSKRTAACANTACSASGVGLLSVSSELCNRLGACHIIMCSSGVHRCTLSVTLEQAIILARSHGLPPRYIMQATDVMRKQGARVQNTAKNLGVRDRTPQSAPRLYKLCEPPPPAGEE

[2] = molecular target: P-Rex2 (WT), recombinant full-length (UniProt Q70Z35 1-1606); test: pull-down

B1: PTEN (WT), recombinant insect-cell purified (natural protein)
chain: not shown
[1]
  binding result: binds
[2]
  binding result: binds
